The numbers were not newly measured in article PMC2930029, which cites them from elsewhere.

Series [1] addresses C3b C3b (Homo sapiens) (UniProt P01024). The series can be described thus: SPR.
Series [2] shares this target.

Where two headings read alike, the source gives them in different places.

Chain of C3b C3b (Homo sapiens) (P01024 566-670): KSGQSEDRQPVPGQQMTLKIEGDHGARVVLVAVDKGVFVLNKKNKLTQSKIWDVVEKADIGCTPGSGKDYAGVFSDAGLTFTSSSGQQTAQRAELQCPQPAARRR
Chain of SCIN (A7X482 32-116): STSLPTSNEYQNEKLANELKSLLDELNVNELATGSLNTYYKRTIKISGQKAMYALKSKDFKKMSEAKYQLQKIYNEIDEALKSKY
Chain of Efb (P68799 30-165): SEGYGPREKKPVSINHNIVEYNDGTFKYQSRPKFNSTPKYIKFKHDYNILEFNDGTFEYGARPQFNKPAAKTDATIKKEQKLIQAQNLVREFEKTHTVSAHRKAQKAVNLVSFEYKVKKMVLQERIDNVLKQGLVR
Chain of Factor H fH(1-4) (P08603 19-264): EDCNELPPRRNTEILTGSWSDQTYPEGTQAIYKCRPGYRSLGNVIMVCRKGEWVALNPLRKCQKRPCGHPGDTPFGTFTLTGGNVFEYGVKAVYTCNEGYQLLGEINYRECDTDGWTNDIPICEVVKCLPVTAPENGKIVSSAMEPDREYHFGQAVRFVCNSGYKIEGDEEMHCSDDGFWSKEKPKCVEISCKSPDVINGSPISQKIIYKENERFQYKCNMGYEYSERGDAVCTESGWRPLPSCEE

In the case of Efb (from UniProt P68799), in series [1], the Kd (commonly the equilibrium constant for the complex coming apart) is 10 nM.
Factor H fH(1-4) (from UniProt P08603): in series [2], the Kd is 11000 nM.
In the case of SCIN (from UniProt A7X482), the equilibrium dissociation constant (Kd) in series [1] was 180 nM.
